In paper PMC9574375 (Cancer Research, 2022):
Read-outs that look alike come from different tables or passages of the source.

Experiments:
[1] = target: the molecule itself; assay: non-reducing SDS-PAGE and immunoblot or Coomassie staining
[2] = target: the molecule itself; assay: as above; remark: listed apart in the source

Protein	binding result [1]	binding result [2]
GST-tagged RET CLD4-CRD (amino acids 382–635) D567N (domain or fragment, human, UniProt P07949 382-635, looked up) QGPGAGVLLLHFNVSVLPVSLHLPSTYSLSVSRRARRFAQIGKVCVENCQAFSGINVQYKLHSSGANCSTLGVVTSAEDTSGILFVNDTKALRRPKCAELHYMVVATDQQTSRQAQAQLLVTVEGSYVAEEAGCPLSCAVSKRRLECEECGGLGSPTGRCEWRQGDGKGITRNFSTCSPSTKTCPNGHCDVVETQDINICPQDCLRGSIVGGHEPGEPRGIKAGYGTCNCFPEEEKCFCEPEDIQDPLCDELCR	binds	–
GST-tagged RET CLD4-CRD (amino acids 382–635), wild type (domain or fragment, human, UniProt P07949 382-635, looked up) QGPGAGVLLLHFNVSVLPVSLHLPSTYSLSVSRRARRFAQIGKVCVENCQAFSGINVQYKLHSSGANCSTLGVVTSAEDTSGILFVNDTKALRRPKCAELHYMVVATDQQTSRQAQAQLLVTVEGSYVAEEAGCPLSCAVSKRRLECEECGGLGSPTGRCEWRQGDGKGITRNFSTCSPSTKTCPDGHCDVVETQDINICPQDCLRGSIVGGHEPGEPRGIKAGYGTCNCFPEEEKCFCEPEDIQDPLCDELCR	–	binds
